# According to PMC11135836:
# Test system: T1, RstA (Escherichia coli LF82 (adherent-invasive)?), ORF:9fe818c8
# T1 sequence: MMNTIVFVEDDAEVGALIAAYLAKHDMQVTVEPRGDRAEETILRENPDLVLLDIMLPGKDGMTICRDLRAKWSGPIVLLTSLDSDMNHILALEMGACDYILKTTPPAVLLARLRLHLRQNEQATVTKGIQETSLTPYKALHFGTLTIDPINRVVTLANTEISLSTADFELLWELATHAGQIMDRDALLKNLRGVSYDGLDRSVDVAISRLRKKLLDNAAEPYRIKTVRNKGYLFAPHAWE
# Experiment: EMSA
# Conditions: EMSA: 40 ng PCR fragment, 0-2 uM RstA, 20 uL; 1 mM Tris-HCl pH 7.5, 0.2 mM DTT, 5 mM MgCl2, 10 mM KCl, 10% glycerol, 30 mM acetyl phosphate; 25 C 30 min …
row,Sequence,binding
1,ATGACGAAAGGACTACAGCGAAATATTTTTTATATGCATTATTAGTAAGTTAGCACCATTTGTATGATTTTTTAAAATTGTGCAATAAAAACCAAATGTACAACTTTTCTATCATTTATAAACTTAATAAAACCTTAAGGTTAACATTTTAATATAACGAGTTGCATTTAGTTACATGTTTAACACTTGATTTAAGATTTGTAATGGCTAGATTGAAATCAGATGTAATCCATTAGTTTTATATTTTACCCATTTAGGGCTGATTTATTACTACACACA (double strand) [csgD promoter],binds
2,CAAGCAAAAGCCTGGTTCCGCCGATTTATCGCTGCGGCAAATAACGCAGCGGGTTTACGGATTTCCCCTTGTAACGAATTTCAAAATGCAAGCGTGTTGAACTGGTTCCGGTGCTACCCATGGTTGCTATTTTTTGCCCCGCCTTCACTTCTTGTTGTTCCCGGACCAGCATTGTGTCGTTATGGGCGTAGG (double strand) [rpoS promoter (negative control)],no binding
3,TGCGCAGTTATTCTACCGCTTTGTAAGTAGTAAAATAGTTAACACGATCAAGACTACTATTATTGGTAGCTAAATTTTCCTTAAGTCACAATACGTTATTATCAATGCTGTAATTTATTCAGCGTTTGTACATATCGTTACACGCTGAAACCAACCACTCACGGAAGTCTGCCATTCC (double strand) [asr promoter],binds
